In the supplement of paper PMC7125110:
± gives the standard error. For part of these data: Variants at the floor of the assay were thinned out.

B1: glmS ribozyme (parent)
chain: AUAAAAGCGCCAGAACUACAGAAAUGUAGUUGACGAGGAGGAGGUUUAUCGAAUUUUCGGCGGAUGCCUCCAAA

Key:
Conditions in all cases: with glucosamine-6-phosphate
[1] = variants of: B1; assay: kcat; higher = faster cleavage; RNA array
How it was run: (§1)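 Barcoded ribozyme variants on sequenced MiSeq chips were transcribed in situ by E. coli RNA polymerase and followed at 37 °C through a hybridised Cy3 probe. Glucosamine-6-phosphate at 40 μM to 10 mM in HEPES/KCl/Mg(OAc)2 buffer was flowed in, and tiles were imaged over ~14 h. Signals were normalised to baseline and to non-cleaving reference variants, and per-tile medians were fit to one- or two-exponential decays to give kobs. Weighted Michaelis–Menten fits across concentrations gave kcat and KM.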

[2] = variants of: B1; assay: KM; higher = weaker cofactor use; RNA array
How it was run: as §1

[3] = variants of: B1; assay: self-cleavage kobs at 640 uM GlcN6P; higher = faster cleavage; RNA array
How it was run: as §1

[4] = variants of: B1; assay: self-cleavage kobs at 2500 uM GlcN6P; higher = faster cleavage; RNA array
How it was run: as §1

[5] = variants of: B1; assay: self-cleavage kobs at 10000 uM GlcN6P; higher = faster cleavage; RNA array
How it was run: as §1

[6] = variants of: B1; assay: self-cleavage kobs at 40 uM GlcN6P; higher = faster cleavage; RNA array
How it was run: as §1

[7] = variants of: B1; assay: self-cleavage kobs at 160 uM GlcN6P; higher = faster cleavage; RNA array
How it was run: as §1

Variant | kcat [1] [s⁻¹] | KM [2] [µM] | self-cleavage kobs at 640 uM GlcN6P [3] [s⁻¹] | self-cleavage kobs at 2500 uM GlcN6P [4] [s⁻¹] | self-cleavage kobs at 10000 uM GlcN6P [5] [s⁻¹] | self-cleavage kobs at 40 uM GlcN6P [6] [s⁻¹] | self-cleavage kobs at 160 uM GlcN6P [7] [s⁻¹]
U45A C67G | 0.000766 ± 0.00012 | 2290 ± 680 | 0.000163 ± 2.6e-05 | 0.000606 ± 0.00012 | 0.0006 ± 6.8e-05 | – | –
U31G A33U | 0.000102 ± 8.8e-06 | 4090 ± 910 | – | 3.73e-05 ± 1.2e-05 | 7.23e-05 ± 1.2e-05 | – | –
U31A A39U | 0.0125 ± 0.0029 | 3370 ± 1000 | 0.00196 ± 0.00029 | 0.00802 ± 0.0015 | 0.00871 ± 0.0014 | 0.000161 ± 2.9e-05 | 0.000508 ± 8.4e-05
A15G C50U | 9.75e-05 ± 1.3e-05 | 2370 ± 1000 | – | 4.52e-05 ± 1.3e-05 | 8.01e-05 ± 1.2e-05 | – | –
C11U G66U | 4.89e-05 ± 2.1e-05 | – | – | 6.45e-05 ± 1e-05 | 2.69e-05 ± 1.2e-05 | < 1e-05 | –
U54C C58U | 4.86e-05 ± 8.6e-06 | – | – | 4.48e-05 ± 1.5e-05 | 4.34e-05 ± 9.3e-06 | – | –
A14C U46C | 0.000346 ± 4.7e-05 | 1090 ± 350 | 0.000128 ± 2.4e-05 | – | 0.000326 ± 4.5e-05 | – | 5.14e-05 ± 1.9e-05
C61A C68A | 1.17e-05 ± 1.8e-06 | – | – | – | – | – | –
U45C C68U | 0.00315 ± 0.00089 | 4960 ± 2100 | 0.000525 ± 0.00011 | 0.000877 ± 0.00019 | 0.00218 ± 0.00028 | 3.71e-05 ± 1e-05 | 8.24e-05 ± 1.9e-05
G44A G66U | 2.15e-05 ± 1.4e-06 | 2150 ± 520 | – | – | – | – | –
A12G U69C | 0.000893 ± 0.00026 | 3900 ± 1900 | 0.000152 ± 2e-05 | 0.000243 ± 5.4e-05 | 0.0007 ± 8.2e-05 | – | –
C10U G35A | 1.32e-05 ± 1.8e-06 | – | – | – | < 1e-05 | – | –
A15C U31A | 0.00691 ± 0.0013 | 1860 ± 480 | 0.0015 ± 0.00035 | 0.00303 ± 0.00078 | 0.0067 ± 0.001 | 0.000156 ± 2.2e-05 | 0.000607 ± 0.00013
U57A G60C | 2.43e-05 ± 9.7e-06 | – | – | – | – | – | –
G13A G29U | 5.33e-05 ± 7.9e-06 | – | – | 4.84e-05 ± 1e-05 | 4.7e-05 ± 8e-06 | – | –
A15G A64C | 0.000162 ± 9.6e-06 | 2040 ± 230 | 3.75e-05 ± 6.6e-06 | 9.56e-05 ± 1.6e-05 | 0.00013 ± 2.2e-05 | – | –
A52C C71U | 1.4e-05 ± 5.1e-07 | 1650 ± 280 | – | – | – | < 1e-05 | –

Variant | kcat [1] [s⁻¹] | KM [2] [µM] | self-cleavage kobs at 640 uM GlcN6P [3] [s⁻¹] | self-cleavage kobs at 2500 uM GlcN6P [4] [s⁻¹] | self-cleavage kobs at 10000 uM GlcN6P [5] [s⁻¹] | self-cleavage kobs at 40 uM GlcN6P [6] [s⁻¹] | self-cleavage kobs at 160 uM GlcN6P [7] [s⁻¹]
A14C U46A | 0.000352 ± 1.6e-05 | 1880 ± 170 | 9.13e-05 ± 1e-05 | 0.000194 ± 2.1e-05 | 0.000301 ± 3.2e-05 | – | –
C50A G66C | 1.65e-05 ± 3e-06 | – | – | – | – | – | –
U30G A48G | < 1e-05 | – | – | – | – | < 1e-05 | < 1e-05
G59A C70U | 0.000157 ± 9e-06 | 1970 ± 320 | 4.24e-05 ± 8e-06 | 8.29e-05 ± 9.8e-06 | 0.000133 ± 1.1e-05 | – | –
A12C A14C | 0.00082 ± 0.00025 | 6190 ± 2800 | 7.98e-05 ± 2e-05 | 0.000201 ± 5.1e-05 | 0.000534 ± 0.0001 | – | 4e-05 ± 1.8e-05
G41A G66U | 8e-05 ± 4.8e-06 | 2190 ± 390 | 2.19e-05 ± 1e-05 | 4.07e-05 ± 7.8e-06 | 6.65e-05 ± 8.4e-06 | – | –
U45G C71U | 0.00857 ± 0.0011 | 2380 ± 450 | 0.00152 ± 0.00031 | 0.00519 ± 0.00062 | 0.00653 ± 0.0008 | 0.000147 ± 1.7e-05 | 0.000517 ± 8.8e-05
A12G A33G U57A G59U | < 1e-05 | – | < 1e-05 | < 1e-05 | – | – | –
G32C C50G | 5.17e-05 ± 1.5e-05 | – | 6.25e-05 ± 2e-05 | – | – | 4.21e-05 ± 1.5e-05 | –
G13U U31A | 0.000483 ± 4.9e-05 | 3730 ± 740 | 6.93e-05 ± 1.3e-05 | 0.000216 ± 3.6e-05 | 0.000346 ± 3.6e-05 | – | –
A14G A42C | 3.47e-05 ± 2.4e-06 | 1730 ± 410 | – | 1.97e-05 ± 9.6e-06 | 2.99e-05 ± 1e-05 | – | –
A53C G66U | 0.000484 ± 6.4e-05 | 1770 ± 450 | 0.000128 ± 3.6e-05 | 0.000344 ± 8.3e-05 | 0.00039 ± 7.6e-05 | – | 3.36e-05 ± 1.5e-05
G66A C68U | 0.00532 ± 0.0011 | 983 ± 280 | 0.00267 ± 0.00085 | 0.00284 ± 0.00078 | 0.00549 ± 0.0008 | 0.000228 ± 2.5e-05 | 0.000531 ± 0.00015
A15C U54C | 0.00621 ± 0.0013 | 1740 ± 510 | 0.00131 ± 0.00024 | 0.00384 ± 0.00078 | 0.00556 ± 0.00077 | 0.000176 ± 2.3e-05 | 0.000481 ± 8.7e-05
G38A C58G | 1.16e-05 ± 3.2e-06 | – | – | – | < 1e-05 | – | < 1e-05
G13C A14G | 0.00129 ± 0.00022 | 3980 ± 950 | 0.000189 ± 2.5e-05 | 0.000557 ± 7.3e-05 | 0.000855 ± 0.00013 | – | 4.16e-05 ± 8.8e-06
